Experimental data published in PMC3302219.

Columns and labels:
Assay in all cases: FRET or BRET
Conditions in all cases: remark: other sources report otherwise
[1] = target: T1, CXCR4 fused to CFP (CXCR4-C) or to YFP (CXCR4-Y) (human), P61073
T1 chain: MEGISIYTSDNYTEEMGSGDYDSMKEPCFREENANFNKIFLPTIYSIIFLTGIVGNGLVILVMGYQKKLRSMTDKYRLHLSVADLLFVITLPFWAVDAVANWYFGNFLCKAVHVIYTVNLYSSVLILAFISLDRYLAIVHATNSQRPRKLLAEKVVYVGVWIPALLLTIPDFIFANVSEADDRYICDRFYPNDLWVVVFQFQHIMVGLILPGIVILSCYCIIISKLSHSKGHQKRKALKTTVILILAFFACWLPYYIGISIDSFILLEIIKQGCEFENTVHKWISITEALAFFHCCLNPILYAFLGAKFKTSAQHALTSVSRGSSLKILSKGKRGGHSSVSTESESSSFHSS

[2] = target: T1, CXCR4 fused to CFP (CXCR4-C) or to YFP …
[3] = target: T1, CXCR4 fused to CFP (CXCR4-C) or to YFP …

B1: CXCR4 fused to CFP (CXCR4-C) or to YFP (CXCR4-Y), P61073 1-352 (receptor)
chain: T1 chain
B1 showed an FRET50 [1] of 1.55, an FRET50 [2] of 1.61 and an FRET50 [3] of 1.27.
